This passage reports protein stability index results from the supplement of paper PMC10567573.

± gives the standard deviation.

A short description of this series: protein stability index of a GFP-peptide fusion (GPS, HEK-293T) (PSI 1-6); higher = more stable.
Where [1] appears, read: treatment: DMSO, c terminus: a fixed tail appended.
Setting [2] is: treatment: MLN4924 1 uM, 8 h, c terminus: a fixed tail appended.
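Also: 24-mer peptide tiles fused after GFP, lentivirally expressed, FACS-sorted into six equal bins by GFP/DsRed ratio, decoded by Illumina sequencing, PSI is the read-weighted mean bin number.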

For the sequence GSCGQGRTIRHVYCKTSDGRVVPE [ADAMTSL2], the protein stability index was 3.66 ± 0.31 under setting [1] and 3.57 ± 0.58 under setting [2].

In the case of EEPENGEPTAAATARRSKRERREE [PWWP2B], the protein stability index runs as follows: under setting [1], 5.63 ± 0.29; under setting [2], 5.8 ± 0.14.

For the sequence DFGSAAASGSFPSQVTATSGNGDF [CLINT1], the protein stability index under setting [1] turned out to be 4.95 ± 0.17 and the protein stability index under setting [2] worked out at 4.69 ± 0.26.

Consider ALPENEFKKQIWLLFEYPESSSPA [KCNA4], for which the protein stability index runs as follows: under setting [1], 2.45 ± 0.16; under setting [2], 2.44 ± 0.5.

Regarding TVCGDLHGQLDDLIFIFYKNGLPS [PPEF2], the protein stability index is 2.87 ± 2.1 under setting [1] and 1.94 ± 0.41 under setting [2].

On to LASLGASEEAVQKLATCYFFTVEF [TPH1], for which the protein stability index came to 2.98 ± 0.52 under setting [1] and 2.73 ± 0.66 under setting [2].

Consider SEEDGEARTQMILLRRSVEGASSD [PHTF1], for which the protein stability index under setting [1] is 5.18 ± 0.21 and the protein stability index under setting [2] turned out to be 5.23 ± 0.12.

For the sequence EVNVLNDMRDTPLHRAAFTGRKIC [OSBPL1A], the protein stability index worked out at 3.19 ± 0.089 under setting [1] and 3.26 ± 0.31 under setting [2].

Consider DGKRVIVVFHCEFSSERGPRMCRY [CDC25A], for which the protein stability index reads like this: under setting [1], 2.64 ± 0.53; under setting [2], 2.73 ± 0.78.

For the sequence GQFVMKTRRTLKGHGNKVLCMDWC [GNB5], the protein stability index is 2.16 ± 0.32 under setting [1] and 2.32 ± 0.3 under setting [2].

As for LDMEKRRCRQSLEDSESLRIKEVE [LRRC45], the protein stability index came to 4.79 ± 0.2 under setting [1] and 4.67 ± 0.1 under setting [2].

Regarding LSVAPQIGMPFNQLGTLAGSKYYN [SMG5], the protein stability index is 2.67 ± 0.15 under setting [1] and 2.71 ± 0.011 under setting [2].

QLDIASQSLDQEILLKVKTEIEEE [BCL2L13] registered a protein stability index under setting [1] of 5.21 ± 0.37 and a protein stability index under setting [2] of 5.09 ± 0.21.

With CLGQLNLEQRSESVRRTRSKIGFG [SMAD6], the protein stability index is, setting by setting: under setting [1], 3.06 ± 0.25; under setting [2], 3.1 ± 0.35.

Take HTRSWAVLKLLLLLLLFGVAGGLV [LRRC59]: the protein stability index by setting is: under setting [1], 2.56 ± 0.44; under setting [2], 2.44 ± 0.35.

On to TPATTTEPPKPTFPAYTQSTASTT [ZNF207], for which the protein stability index reads like this: under setting [1], 4.99 ± 0.12; under setting [2], 5.1 ± 0.15.

Take DSTKTAFHRSQTLSYRNGYAIVRR [EFHC1]: the protein stability index amounted to 3.31 ± 0.12 under setting [1] and 3.48 ± 0.32 under setting [2].

Turning to EATTSDPQDLDMKKHRCKCCSIM [PALM], the protein stability index runs as follows: (treatment: DMSO, c terminus: native) 4.3 ± 0.24; (treatment: MLN4924 1 uM, 8 h, c terminus: native) 4.58 ± 0.23.

In turn, YDILPLSPVSRNRLAQVKRKILVL [CTDNEP1] displayed a protein stability index under setting [1] of 2.11 ± 0.36 and a protein stability index under setting [2] of 2.35 ± 0.22.

Consider MSTKESDFLCLLGVSYTFDNEDSE [MIA2], for which the protein stability index is 2.92 ± 0.14 under setting [1] and 2.91 ± 0.29 under setting [2].

Take SCEEVAASSASLEPMWSGSTMRRM [EMID1]: the protein stability index was determined as 4.09 ± 0.3 under setting [1] and 4.35 ± 0.18 under setting [2].

On to PSPPPGSHYTSPSENMWNTGSTYN [CARM1], for which the protein stability index reads like this: under setting [1], 3.8 ± 0.43; under setting [2], 3.81 ± 0.23.

In the case of ERPERRSGPPASYCAKLCEPQWFY [C8orf76], the protein stability index is, setting by setting: under setting [1], 2.46 ± 0.26; under setting [2], 2.54 ± 0.32.

On to HWDGYSKGVNRKLGRTGLYPSYKV [FUT8], for which the protein stability index under setting [1] stood at 2.5 ± 0.32 and the protein stability index under setting [2] amounted to 2.53 ± 0.18.

On to PGETRRNSYPRADTGLFSRSKSGS [TRIM29], for which the protein stability index was 4.73 ± 0.18 under setting [1] and 5.01 ± 0.47 under setting [2].

Turning to LTDFYPVRRSSRKSKAELQSEERK [KMT5A], the protein stability index is 3.04 ± 0.39 under setting [1] and 3.49 ± 0.9 under setting [2].

In the case of KTLRVWDLKDDGNMMKVLRGHQNW [WSB1], the protein stability index runs as follows: under setting [1], 2.66 ± 0.4; under setting [2], 2.4 ± 0.42.

In the case of LGPSGLQNHGQHLILSREASWAKP [LCOR], the protein stability index reads like this: under setting [1], 3.08 ± 0.19; under setting [2], 3.18 ± 0.2.

LPCFNGRVVSWLVSAEGSHPDPAP [DVL3]: the protein stability index by setting is: under setting [1], 2.64 ± 0.24; under setting [2], 2.53 ± 0.28.

ASNRIIGAKDHASIQMNVAEVSWE [RPS21]: the protein stability index reads like this: under setting [1], 3.63 ± 0.44; under setting [2], 3.63 ± 1.4.

Turning to HTSSEYDMLREMFSDSRSNNDDDE [TAF7L], the protein stability index under setting [1] stood at 5.57 ± 0.28 and the protein stability index under setting [2] amounted to 5.24 ± 0.53.

As to RARLDSMVLLIMKLDQLDQDIENA [DLC1], the protein stability index is, setting by setting: under setting [1], 2.47 ± 0.22; under setting [2], 2.4 ± 0.39.

For NHFVWRLIPVPMATQIQQLLQDKQ [VPS39], the protein stability index turned out to be 2.3 ± 0.44 under setting [1] and 2.16 ± 0.31 under setting [2].

Consider IRAAKGLDQALKEGGKLPPPPPPS [ZC2HC1A], for which the protein stability index is, setting by setting: under setting [1], 4.35 ± 0.24; under setting [2], 4.48 ± 0.4.

As to PLLSPLLASRNPCPWHYLHLSGSH [RSPH3], the protein stability index is, setting by setting: under setting [1], 2.15 ± 0.23; under setting [2], 2.01 ± 0.2.

As for PIRSISLRSCYFSDPDCSMRPTLI [FBXO39], the protein stability index is, setting by setting: under setting [1], 2.13 ± 0.36; under setting [2], 2.07 ± 0.27.

As to KSHFQNSREWSGKEKWWDGQRDRK [PBXIP1], the protein stability index is, setting by setting: under setting [1], 3.67 ± 0.26; under setting [2], 3.98 ± 0.31.

As to WTFYPRFSSNIHTYHVGKQCFFNG [SPATS1], the protein stability index by setting is: under setting [1], 2.74 ± 0.53; under setting [2], 2.24 ± 0.33.

Consider WLRVLNPDLVKGPWTKEEDQKVIE [MYBL2], for which the protein stability index amounted to 2.61 ± 0.36 under setting [1] and 2.92 ± 0.18 under setting [2].

On to KERKKREERERKRRKEEEVQQQKL [FAF2], for which the protein stability index runs as follows: under setting [1], 5.09 ± 0.46; under setting [2], 4.91 ± 0.31.

For the sequence QDGVSCLNIVERYDPKENKWTRVA [KLHL20], the protein stability index by setting is: under setting [1], 3.98 ± 0.28; under setting [2], 4.08 ± 0.21.

Sequence SSAPDLMCLSPDRKMEVEELSPLA [CDC25B] came in with a protein stability index under setting [1] of 5 ± 0.37 and a protein stability index under setting [2] of 5 ± 0.22.

MMDSRTSQQLQLIDEQDSYIQSRA [STX5]: the protein stability index stood at 4.77 ± 0.15 under setting [1] and 4.74 ± 0.076 under setting [2].

As to EDNLSLVCLPRSEDDDCDDDDDDD [DRICH1], the protein stability index is, setting by setting: under setting [1], 5.48 ± 0.42; under setting [2], 5.51 ± 0.075.

SSKTITAEIPDGPPVVAHYDMSDT [C18orf25]: the protein stability index is, setting by setting: under setting [1], 5.14 ± 0.14; under setting [2], 4.96 ± 0.23.

As to GNDRRREWAALGNMSKEDAMVEFV [ACBD3], the protein stability index was 4.11 ± 0.24 under setting [1] and 4.3 ± 0.26 under setting [2].

Turning to GKTDDTLALLNLACMMTITFLPYT [TMEM175], the protein stability index reads like this: under setting [1], 3.21 ± 0.33; under setting [2], 3.08 ± 0.16.

For GRHAQTVETLLRHGAHINLQSLKF [RIPK4], the protein stability index reads like this: under setting [1], 2.34 ± 0.14; under setting [2], 2.65 ± 0.45.

Take TTTSAATATTAPPALDIFGDLFES [SNAP91]: the protein stability index turned out to be 4.47 ± 0.1 under setting [1] and 4.68 ± 0.16 under setting [2].

For the sequence FLQYYYQSGCLYRLRALGERHTMD [TMEM120A], the protein stability index runs as follows: under setting [1], 2.46 ± 0.47; under setting [2], 2.35 ± 0.38.

For the sequence SNLQAMSTQMFQTKRCFRLAPTFS [SMG5], the protein stability index runs as follows: under setting [1], 2.17 ± 0.36; under setting [2], 2.2 ± 0.14.

Turning to SRRYTEMALPFFSLAEVRVGYQSQ [MYORG], the protein stability index by setting is: under setting [1], 2.3 ± 0.16; under setting [2], 2.29 ± 0.039.

Under setting [2], ESLRPLVQTPPGGSEVVPVISPMY [IKZF1] registered a protein stability index of 3.72 ± 0.71.

Take EIERAIKQTQCPADPLQLNKALSI [FEM1C]: the protein stability index came out at 3.42 ± 0.44 under setting [1] and 3.28 ± 0.16 under setting [2].

DLPSSTPVANSGTKPKTTAIQGIS [DLC1] returned a protein stability index under setting [1] of 4.75 ± 0.2 and a protein stability index under setting [2] of 4.93 ± 0.065.

As for DDVISRIDRMFPEMSIHLSRPNGT [MED27], the protein stability index by setting is: under setting [1], 3.25 ± 0.24; under setting [2], 3.36 ± 0.25.

For LATASYDTRVYIWDPHNGDILMEF [WSB1], the protein stability index reads like this: under setting [1], 2.85 ± 0.12; under setting [2], 2.86 ± 0.26.

As to PPEPLSQVSMWDQRWQDHQPLLPI [APBB1IP], the protein stability index is 2.76 ± 0.75 under setting [1] and 3.72 ± 1.1 under setting [2].

As for GVFKFLRSEAVAQLWGQKKKNSNM [ELF3], the protein stability index under setting [1] is 2.83 ± 0.18 and the protein stability index under setting [2] is 2.41 ± 0.33.

MADWARAQSPGAVEEILDRENKRM [BET1L] returned a protein stability index under setting [1] of 4.71 ± 0.35 and a protein stability index under setting [2] of 4.75 ± 0.21.

Consider QSPGQPVQGGSEAWGPGTLAAAPE [TEX19], for which the protein stability index is, setting by setting: under setting [1], 5.08 ± 0.37; under setting [2], 5.11 ± 0.24.

In turn, DQLLLATGLNNGRIKIWDVYTGKL [WSB1] registered a protein stability index under setting [1] of 2.17 ± 0.29 and a protein stability index under setting [2] of 2.17 ± 0.31.

For MASQSQGIQQLLQAEKRAAEKVSE [ATP6V1G1], the protein stability index was 4.93 ± 0.36 under setting [1] and 5.385 ± 0.052 under setting [2].

Turning to FIMDSCDELIPEYLNFIRGVVDSE [HSP90AB1], the protein stability index by setting is: under setting [1], 2.37 ± 0.13; under setting [2], 2.32 ± 0.32.

Consider GFAVKALWGRTQEEAEELAKEMSV [GFOD1], for which the protein stability index is, setting by setting: under setting [1], 4.24 ± 0.13; under setting [2], 4.07 ± 0.3.

In the case of TISSWRNDRMSTRHDGYATNDGNH [RBMY1A1], the protein stability index reads like this: under setting [1], 3.99 ± 0.23; under setting [2], 4.02 ± 0.086.

For NTIAFRHLFLLGYSDGADDTFAAY [MCOLN1], the protein stability index is 2.46 ± 0.66 under setting [1] and 2.33 ± 0.12 under setting [2].

Turning to EGYAHLTHLLMGLASGRIILILEG [HDAC6], the protein stability index is, setting by setting: under setting [1], 2.91 ± 0.56; under setting [2], 3.09 ± 0.041.

For DAETSKLIYDFIEDQGGLEAVRQE [WAS], the protein stability index is, setting by setting: under setting [1], 4.61 ± 0.24; under setting [2], 4.76 ± 0.28.

LCRKCANDIFQAANPYWTSRGSSV [TRIM63]: the protein stability index reads like this: under setting [1], 2.32 ± 0.36; under setting [2], 2.58 ± 0.49.

Take AMLKALLGSKHKVCMDLRANLKQV [TNNI2]: the protein stability index reads like this: under setting [1], 2.42 ± 0.18; under setting [2], 2.33 ± 0.43.

With VQFHRHHGQEGSILVTKVEEPSKY [GMPPB], the protein stability index was determined as 3.45 ± 0.31 under setting [1] and 3.58 ± 0.27 under setting [2].
